Data reported in PMC4161306, “Regulation of Arabidopsis Flowering by the Histone Mark Readers MRG1/2 via Interaction with CONSTANS to Modulate FT Expression” (PLoS Genetics, 2014).
Where no end group is shown, it is not given here. Me3 = trimethyl-lysine; Me2 = dimethyl-lysine

What was measured:
[1] = molecular target: T1, MRG2 chromodomain (residues 41-123) (Arabidopsis thaliana, UniProt Q4V3E2 41-123); assay: ITC; 25 C, MicroCal iTC200; 50 mM Tris pH 8.0, 100 mM NaCl; 0.2-0.4 mM protein in the cell, 2-4 mM peptide injected in 2 ul aliquots (20 injections); one-site model; conditions: both partners purified
T1 construct: Arabidopsis thaliana MRG2 chromodomain, residues 41-123; Construct of the ITC; source: cloned into pET28-SMT3, purified, tag removed
T1 sequence (looked up): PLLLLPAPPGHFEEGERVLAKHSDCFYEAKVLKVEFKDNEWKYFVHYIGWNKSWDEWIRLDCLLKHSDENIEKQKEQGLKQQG

[2] = molecular target: T2, GST-fused CONSTANS (CO) (Arabidopsis thaliana, UniProt Q39057 1-373); assay: pull-down; GST-fused CO (or GST alone) with His-tagged MRG2, MRG2C or MRG2N, purified from E. coli; protocol of ref. 51; conditions: both partners purified
T2 construct: Arabidopsis transcription factor CONSTANS (CO); CO cDNA amplified with primers CO-1/CO-2; also called GST-CO; source: E. coli, pGEX-4T-1, purified
T2 sequence (looked up): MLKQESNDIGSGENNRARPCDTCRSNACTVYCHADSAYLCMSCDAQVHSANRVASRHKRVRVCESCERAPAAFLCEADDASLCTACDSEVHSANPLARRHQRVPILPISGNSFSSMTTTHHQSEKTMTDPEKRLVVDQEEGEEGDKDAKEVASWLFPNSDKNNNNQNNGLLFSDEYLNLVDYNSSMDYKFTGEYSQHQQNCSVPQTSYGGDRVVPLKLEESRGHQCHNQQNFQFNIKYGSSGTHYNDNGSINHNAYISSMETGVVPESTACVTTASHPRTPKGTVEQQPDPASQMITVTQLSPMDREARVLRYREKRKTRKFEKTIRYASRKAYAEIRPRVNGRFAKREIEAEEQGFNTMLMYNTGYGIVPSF

Binder	Kd [1] [µM]	binding result [2]
ARTK(Me2)QTARK [H3K4me2 peptide (residues 1-9)]	2400	–
KAARK(Me3)SAPA [H3K27me3 peptide (residues 23-31)]	2500	–
His-tagged MRG2 (natural protein, Arabidopsis thaliana, UniProt Q4V3E2 1-327, looked up, Arabidopsis MRG2 cDNA amplified with primers MRG2-1/MRG2-10; MRG2-1 is the forward primer of MRG2N (cDNA from nucleotide 1) and MRG2-10 the reverse primer of MRG2C (cDNA to nucleotide 984); also called MRG2 tagged with multiple His residues; His-MRG2; source: E. coli, pET-30a, purified (His tag)) MGSPNAAAETDLTTDDFIGDTRRDSGSDTETNTDCDGEDLPLLLLPAPPGHFEEGERVLAKHSDCFYEAKVLKVEFKDNEWKYFVHYIGWNKSWDEWIRLDCLLKHSDENIEKQKEQGLKQQGIKSAMAWKVSKMKPRSPNVARGRKRKQDSVDTEKNVLPSDNLLSFNIPPALRKQLLDDFEFVTQMQKLVQLPRSPNVDGILKKYIDSQMKKHGRVTDSLEEILKGLRCYFDKALPVMLLYNNERKQYEESVSGGVSPSTVYGAEHLLRLFVKLPELLVHVNMAEETLKELQDNFVDILRFLRKNQSVLFVSTYKAVEEMEKKEG	–	binds
KQTARK(Me3)STGG [H3K9me3 peptide (residues 4-13)]	1200	–
His-tagged MRG2C (MRG domain of MRG2) (domain or fragment, Arabidopsis thaliana, UniProt Q4V3E2 148-327, looked up, Arabidopsis MRG2; MRG2C is cDNA 442-984, which are nucleotides, i.e. from residue 148 to the C-terminus; holds the MRG domain; source: E. coli, pET-30a, purified (His tag)) RKQDSVDTEKNVLPSDNLLSFNIPPALRKQLLDDFEFVTQMQKLVQLPRSPNVDGILKKYIDSQMKKHGRVTDSLEEILKGLRCYFDKALPVMLLYNNERKQYEESVSGGVSPSTVYGAEHLLRLFVKLPELLVHVNMAEETLKELQDNFVDILRFLRKNQSVLFVSTYKAVEEMEKKEG	–	binds
